We go through 3 molecules from paper PMC4306524 (Molecular Cell, 2015).

First the molecules themselves.
B3: Bacillus subtilis ScpA (natural protein, UniProt P35154 1-251, looked up)
chain: MEEYQVKIDTFEGPLDLLLHLINRLEIDIYDIPVAKITEQYLLYVHTMRVLELDIASEYLVMAATLLSIKSRMLLPKQEEELFEDELLEEEDPREELIEKLIEYRKYKDAAKDLKEREEERQKSFTKPPSDLSEYAKEVKQSEQKLSVTVYDMIGAFQKVLKRKKINRPMETTITRQDIPIEARMNEIVHSLKSRGTRINFMDLFPYEQKEHLVVTFLAVLELMKNQLVLIEQEHNFSDIYITGSESIHGA

The target of data set [1] is T1, ScSmc2H-CC110;ScSmc4H-CC110 (Saccharomyces cerevisiae?;Saccharomyces …, UniProt P38989;Q12267 396-792;555-951, |).
T1 sequence 1: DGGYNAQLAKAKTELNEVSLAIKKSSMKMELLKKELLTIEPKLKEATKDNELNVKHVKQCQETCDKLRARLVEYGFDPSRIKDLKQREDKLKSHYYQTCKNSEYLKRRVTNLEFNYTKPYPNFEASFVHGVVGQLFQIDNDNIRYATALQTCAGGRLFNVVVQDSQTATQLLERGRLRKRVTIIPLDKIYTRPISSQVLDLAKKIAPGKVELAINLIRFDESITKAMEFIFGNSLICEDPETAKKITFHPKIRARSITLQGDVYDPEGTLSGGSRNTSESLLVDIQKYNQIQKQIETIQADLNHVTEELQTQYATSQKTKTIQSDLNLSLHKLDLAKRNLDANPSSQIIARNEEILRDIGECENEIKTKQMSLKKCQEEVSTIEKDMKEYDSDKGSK
T1 sequence 2: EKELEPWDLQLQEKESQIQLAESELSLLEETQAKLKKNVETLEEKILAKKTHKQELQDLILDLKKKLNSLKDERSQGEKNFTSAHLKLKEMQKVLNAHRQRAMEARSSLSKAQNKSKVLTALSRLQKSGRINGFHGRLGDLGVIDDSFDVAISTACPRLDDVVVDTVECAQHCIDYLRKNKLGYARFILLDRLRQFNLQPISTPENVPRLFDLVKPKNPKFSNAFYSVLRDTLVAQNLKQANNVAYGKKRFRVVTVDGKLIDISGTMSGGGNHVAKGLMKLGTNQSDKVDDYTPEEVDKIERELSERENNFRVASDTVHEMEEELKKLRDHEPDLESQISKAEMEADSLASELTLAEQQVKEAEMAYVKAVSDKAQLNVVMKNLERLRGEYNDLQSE
The experiment in a line: fluorescence anisotropy. In general terms: Polarisation of emitted light reports the rotation of a fluorescent probe.

The target of the next data set is T2, Bs Smc (Bacillus subtilis, UniProt P51834 1-1186).
T2 sequence: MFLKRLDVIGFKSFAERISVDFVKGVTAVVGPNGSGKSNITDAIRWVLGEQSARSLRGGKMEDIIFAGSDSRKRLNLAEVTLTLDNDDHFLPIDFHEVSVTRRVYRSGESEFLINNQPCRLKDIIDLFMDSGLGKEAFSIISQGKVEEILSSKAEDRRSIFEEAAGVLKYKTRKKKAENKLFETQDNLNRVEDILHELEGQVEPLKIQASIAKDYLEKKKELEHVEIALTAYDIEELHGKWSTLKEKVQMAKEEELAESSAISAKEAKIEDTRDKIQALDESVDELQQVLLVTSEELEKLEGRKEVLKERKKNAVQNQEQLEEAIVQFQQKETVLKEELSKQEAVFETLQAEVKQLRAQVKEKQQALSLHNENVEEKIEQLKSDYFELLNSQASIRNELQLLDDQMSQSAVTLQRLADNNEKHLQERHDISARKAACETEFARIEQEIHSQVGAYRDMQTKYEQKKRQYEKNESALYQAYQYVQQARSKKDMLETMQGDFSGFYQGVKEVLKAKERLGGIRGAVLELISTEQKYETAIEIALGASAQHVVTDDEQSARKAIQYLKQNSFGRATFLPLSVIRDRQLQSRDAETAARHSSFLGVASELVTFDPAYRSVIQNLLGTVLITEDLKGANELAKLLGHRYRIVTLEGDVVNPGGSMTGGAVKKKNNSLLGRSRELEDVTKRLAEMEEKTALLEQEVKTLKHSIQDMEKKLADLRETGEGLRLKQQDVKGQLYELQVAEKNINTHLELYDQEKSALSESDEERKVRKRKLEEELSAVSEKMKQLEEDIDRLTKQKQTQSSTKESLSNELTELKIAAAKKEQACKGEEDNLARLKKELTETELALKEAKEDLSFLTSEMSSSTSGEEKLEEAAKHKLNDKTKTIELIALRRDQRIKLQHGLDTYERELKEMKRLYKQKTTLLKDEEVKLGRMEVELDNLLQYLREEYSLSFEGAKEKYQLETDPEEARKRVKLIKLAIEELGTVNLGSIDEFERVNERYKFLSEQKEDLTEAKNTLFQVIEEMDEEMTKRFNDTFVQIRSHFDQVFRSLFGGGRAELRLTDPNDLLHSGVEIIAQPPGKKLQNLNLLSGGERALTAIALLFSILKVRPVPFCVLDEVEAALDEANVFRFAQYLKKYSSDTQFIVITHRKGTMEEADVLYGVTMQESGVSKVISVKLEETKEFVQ
The experiment in a line: fluorescence anisotropy.

In a further data set the target is T3, BsSmcH-CC8 (Bacillus subtilis, UniProt P51834 489-680).
T3 sequence: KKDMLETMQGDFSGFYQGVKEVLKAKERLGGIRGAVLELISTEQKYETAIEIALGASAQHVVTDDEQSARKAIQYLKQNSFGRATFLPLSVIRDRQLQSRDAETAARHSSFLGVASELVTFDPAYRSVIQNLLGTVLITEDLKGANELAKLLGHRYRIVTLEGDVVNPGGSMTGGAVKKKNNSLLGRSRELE
Briefly: fluorescence anisotropy.

The target in another data set is T4, BsSmcH-CC100 (Bacillus subtilis, UniProt P51834 400-776).
T4 sequence: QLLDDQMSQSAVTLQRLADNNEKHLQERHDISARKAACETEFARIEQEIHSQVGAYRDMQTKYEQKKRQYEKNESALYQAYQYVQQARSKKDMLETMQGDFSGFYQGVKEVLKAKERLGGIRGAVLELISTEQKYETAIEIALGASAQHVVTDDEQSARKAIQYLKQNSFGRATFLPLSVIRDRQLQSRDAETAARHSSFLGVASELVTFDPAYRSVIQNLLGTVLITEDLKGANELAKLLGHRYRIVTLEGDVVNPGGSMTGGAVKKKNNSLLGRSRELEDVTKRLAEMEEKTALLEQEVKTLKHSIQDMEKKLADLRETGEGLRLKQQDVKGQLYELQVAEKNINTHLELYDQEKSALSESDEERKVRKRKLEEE
Briefly: fluorescence anisotropy.

In the next data set the target is T5, BsSmcH (Bacillus subtilis, UniProt P51834 498-665).
T5 sequence: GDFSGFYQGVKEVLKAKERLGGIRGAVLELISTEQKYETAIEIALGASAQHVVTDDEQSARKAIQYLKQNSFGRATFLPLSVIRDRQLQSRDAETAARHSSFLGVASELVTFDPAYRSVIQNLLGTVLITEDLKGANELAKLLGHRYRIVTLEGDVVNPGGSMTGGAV
The experiment in a line: fluorescence anisotropy.

Data set [2] concerns the target T6, Bacillus subtilis Smc protein (Bacillus subtilis, UniProt P51834 1-1186).
T6 sequence (looked up): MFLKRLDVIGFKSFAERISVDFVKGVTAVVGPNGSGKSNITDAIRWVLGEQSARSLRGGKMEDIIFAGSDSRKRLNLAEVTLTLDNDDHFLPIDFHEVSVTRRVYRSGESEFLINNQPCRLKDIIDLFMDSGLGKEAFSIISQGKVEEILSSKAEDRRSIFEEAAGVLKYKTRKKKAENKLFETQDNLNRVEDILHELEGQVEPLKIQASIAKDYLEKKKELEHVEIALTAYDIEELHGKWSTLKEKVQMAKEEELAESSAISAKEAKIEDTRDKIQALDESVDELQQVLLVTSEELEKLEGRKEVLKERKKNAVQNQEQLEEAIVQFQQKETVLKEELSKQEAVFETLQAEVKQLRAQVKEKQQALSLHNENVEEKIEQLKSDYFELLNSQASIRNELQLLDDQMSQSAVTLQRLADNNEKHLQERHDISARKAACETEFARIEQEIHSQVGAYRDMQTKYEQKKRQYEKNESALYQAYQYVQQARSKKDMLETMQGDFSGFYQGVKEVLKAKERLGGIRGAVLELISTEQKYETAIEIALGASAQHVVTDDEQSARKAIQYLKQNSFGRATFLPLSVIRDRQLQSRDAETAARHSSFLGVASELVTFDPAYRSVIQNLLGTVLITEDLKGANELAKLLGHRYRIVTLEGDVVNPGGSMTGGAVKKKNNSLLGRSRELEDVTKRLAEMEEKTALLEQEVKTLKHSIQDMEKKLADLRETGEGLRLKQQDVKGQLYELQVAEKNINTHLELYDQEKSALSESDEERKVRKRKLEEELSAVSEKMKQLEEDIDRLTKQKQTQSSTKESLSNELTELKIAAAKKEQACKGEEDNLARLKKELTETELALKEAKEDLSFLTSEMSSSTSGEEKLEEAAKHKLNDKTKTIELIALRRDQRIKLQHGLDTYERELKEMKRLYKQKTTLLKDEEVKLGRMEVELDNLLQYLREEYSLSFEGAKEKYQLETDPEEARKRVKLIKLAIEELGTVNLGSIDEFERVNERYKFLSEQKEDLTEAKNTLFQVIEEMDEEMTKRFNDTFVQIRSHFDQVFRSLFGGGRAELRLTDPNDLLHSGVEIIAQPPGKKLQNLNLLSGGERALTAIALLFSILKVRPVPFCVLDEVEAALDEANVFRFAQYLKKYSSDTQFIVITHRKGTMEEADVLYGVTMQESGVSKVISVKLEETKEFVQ
Briefly: SEC-MALS. For orientation: In gel filtration, larger molecules generally elute earlier.

The data set “Bacillus subtilis ScpA” deals with B3. Briefly: SEC-MALS.
The data set “SEC-MALS” deals with the molecule itself. The experiment in a line: SEC-MALS.

B1: ds40 (dsDNA)
DNA 1: TTAGTTGTTCGTAGTGCTCGTCTGGCTCTGGATTACCCGC
DNA 2: GCGGGTAATCCAGAGCCAGACGAGCACTACGAACAACTAA
For the molecule B1, the Kd in data set [1] was about 50 nM; with Bs Smc, about 100 nM; with BsSmcH-CC8, about 200 nM; in the data set with BsSmcH-CC100, about 100 nM. The binding result with BsSmcH is given as “no binding”.

B2: Bacillus subtilis ScpB (natural protein, UniProt P35155 1-197, looked up)
chain: MGLDIVNWKAIVEALLYAAGDEGLTKKQLLTVLEIEEPELNTIMADVADEYRGDTRGIELIEYADTYMLSTKKDFAPYLKKLIEVPSKGLSQASLEVLAIVSYKQPITRAEIEEIRGVKSERILHSLVAKALLCEVGRADGPGRAILYGTTPTFLEQFGLKTLDELPPLPENAEEDVLQEEADLFFENFNQTFEDIK
Turning to B2, the binding result (in data set [2]; with Bacillus subtilis ScpA; in “SEC-MALS”) was “binds” each time.

With B3, in data set [2], the binding result is given as “binds”.

A word on the Kd: it is the concentration at which binding is half-saturated.
